Data on 15 molecules can be found in PMC5074368.

Positions count from the first letter of the chain named. In names and notes the source's numbering stands.

Experiment [1] deals with GIPC in the prey vector pVP16 (UniProt O14908). Kind of experiment: mammalian two-hybrid assay. As to conditions: parent: est. 100, read off a plot.
In experiment [2] the target is NDP52 in the prey vector pVP16 (UniProt Q13137). Kind of experiment: mammalian two-hybrid assay. As to conditions: parent: est. 100, read off a plot.
Experiment [3] addresses TOM1 in the prey vector pVP16 (UniProt O60784). As to the kind of experiment: mammalian two-hybrid assay. As to conditions: parent: est. 100, read off a plot.
The target in experiment [4] is Dab2 in the prey vector pVP16 (UniProt P98082). As to the kind of experiment: mammalian two-hybrid assay. As to conditions: parent: est. 100, read off a plot.
Experiment [5] deals with F-actin (cellular actin filaments of RPE cells) (human (endogenous in RPE cells)) (UniProt P60709). Kind of experiment: co-sedimentation; actin pelleting assay: homogenate of RPE cells expressing GFP-myosin VI constructs in F-actin stabilisation buffer (50 mM PIPES pH 6.9, 50 mM NaCl, mild detergents), 100 000 x g, 1 h, 37°C; quantitative immunoblotting, pellet/supernatant normalised to endogenous myosin VI; the pellet also holds cellular membranes. (In general: Immunoblotting shows a protein as a band on a membrane.)

Experiment [6] deals with LMTK2 in the prey vector pVP16 (UniProt Q8IWU2). As to the kind of experiment: mammalian two-hybrid assay. The note with it: n = 4; parent: est. 100; read off a plot.
Experiment [7] addresses optineurin in the prey vector pVP16 (UniProt Q96CV9). As to the kind of experiment: mammalian two-hybrid assay. As to conditions: n = 4; parent: est. 100; read off a plot.
The target in experiment [8] is F-actin (cellular actin filaments of RPE cells), P60709. Kind of experiment: cell fractionation into supernatant and F-actin-enriched pellet, quantitative immunoblotting. The note with it: chain shown with the change, n = 3, parent: est. 1.3, read off a plot.

On to “Myosin VI globular tail (amino acids 1036–1294), wild type, in the bait vector pM R1108A”, for which the percent of parent (% wildtype control) in experiment [1] (n = 3) was 2; in experiment [2] (n = 3), 16. As to “Myosin VI globular tail (amino acids 1036–1294), wild type, in the bait vector pM E1254A”, the percent of parent (% wildtype control) in experiment [3] (n = 3) amounted to 87; in experiment [4] (n = 5) it was 88. Take “Myosin VI globular tail (amino acids 1036–1294), wild type, in the bait vector pM R1107A”: the percent of parent (% wildtype control) in experiment [1] (n = 3) was 69; in experiment [2] (n = 3) it was 76. “Myosin VI globular tail (amino acids 1036–1294), wild type, in the bait vector pM I1252A”: the figures for the percent of parent (% wildtype control) in experiment [3] (n = 3) and in experiment [4] (n = 5) were 110 and 260, respectively. Consider “Myosin VI globular tail (amino acids 1036–1294), wild type, in the bait vector pM E1251A”, for which the percent of parent (% wildtype control) in experiment [3] (n = 3) is 73; in experiment [4] (n = 5) it was 66.

For the molecule “Myosin VI globular tail (amino acids 1036–1294), wild type, in the bait vector pM R1255A”, the percent of parent (% wildtype control) is 99 in experiment [3] (n = 3) and 60 in experiment [4] (n = 5). As to “Myosin VI globular tail (amino acids 1036–1294), wild type, in the bait vector pM L1109A”, the percent of parent (% wildtype control) in experiment [1] (n = 3) stood at 32; in experiment [2] (n = 3) it was 100.

For the molecule “GFP-tagged full-length myosin VI-NI RRL–AAA (from UniProt Q9UM54-1 1-1285) (natural protein)”, in experiment [5], the fold increase of the pellet/supernatant ratio against WT myosin VI was over 5 fold. As to “Myosin VI globular tail (amino acids 1036–1294), wild type, in the bait vector pM W1253A”, the percent of parent (% wildtype control) in experiment [6] turned out to be 0; in experiment [7] it was 120; in experiment [1] (n = 4) it was 59; in experiment [3] (n = 3) it was 2; in experiment [3] (n = 4), 2; in experiment [2] (n = 4) it was 71. Further, the percent of parent (% wildtype control) in experiment [4] (n = 4) and in experiment [4] (n = 5) was 1 each time.

Take “GFP-tagged full-length myosin VI-NI WWY–WLY (from UniProt Q9UM54-1 1-1285) (natural protein)”: in experiment [5], the fold increase of the pellet/supernatant ratio against WT myosin VI worked out at 3 fold.

B1: GFP-tagged full-length myosin VI-NI, wild type, Q9UM54-1 W1253A (protein)
chain: MEDGKPVWAPHPTDGFQMGNIVDIGPDSLTIEPLNQKGKTFLALINQVFPAEEDSKKDVEDNCSLMYLNEATLLHNIKVRYSKDRIYTYVANILIAVNPYFDIPKIYSSEAIKSYQGKSLGTRPPHVFAIADKAFRDMKVLKMSQSIIVSGESGAGKTENTKFVLRYLTESYGTGQDIDDRIVEANPLLEAFGNAKTVRNNNSSRFGKFVEIHFNEKSSVVGGFVSHYLLEKSRICVQGKEERNYHIFYRLCAGASEDIREKLHLSSPDNFRYLNRGCTRYFANKETDKQILQNRKSPEYLKAGSMKDPLLDDHGDFIRMCTAMKKIGLDDEEKLDLFRVVAGVLHLGNIDFEEAGSTSGGCNLKNKSAQSLEYCAELLGLDQDDLRVSLTTRVMLTTAGGTKGTVIKVPLKVEQANNARDALAKTVYSHLFDHVVNRVNQCFPFETSSYFIGVLDIAGFEYFEHNSFEQFCINYCNEKLQQFFNERILKEEQELYQKEGLGVNEVHYVDNQDCIDLIEAKLVGILDILDEENRLPQPSDQHFTSAVHQKHKDHFRLTIPRKSKLAVHRNIRDDEGFIIRHFAGAVCYETTQFVEKNNDALHMSLESLICESRDKFIRELFESSTNNNKDTKQKAGKLSFISVGNKFKTQLNLLLDKLRSTGASFIRCIKPNLKMTSHHFEGAQILSQLQCSGMVSVLDLMQGGYPSRASFHELYNMYKKYMPDKLARLDPRLFCKALFKALGLNENDYKFGLTKVFFRPGKFAEFDQIMKSDPDHLAELVKRVNHWLTCSRWKKVQWCSLSVIKLKNKIKYRAEACIKMQKTIRMWLCKRRHKPRIDGLVKVGTLKKRLDKFNEVVSVLKDGKPEMNKQIKNLEISIDTLMAKIKSTMMTQEQIQKEYDALVKSSEELLSALQKKKQQEEEAERLRRIQEEMEKERKRREEDEKRRRKEEEERRMKLEMEAKRKQEEEERKKREDDEKRIQAEVEAQLARQKEEESQQQAVLEQERRDRELALRIAQSEAELISDEAQADLALRRNDGTRPKMTPEQMAKEMSEFLSRGPAVLATKAAAGTKKYDLSKWKYAELRDTINTSCDIELLAACREEFHRRLKVYHAWKSKNKKRNTETEQRAPKSVTDYDFAPFLNNSPQQNPAAQIPARQREIEMNRQQRFFRIPFIRPADQYKDPQSKKKGWWYAHFDGPWIARQMELHPDKPPILLVAGKDDMEMCELNLEETGLTRKRGAEILPRQFEEIAERCGGIQYLQNAIESRQARPTYATAMLQSLLK
Consider B1, for which, in experiment [8], the other: pellet:supernatant (P:S) ratio amounted to 2.2.

B2: GFP-tagged full-length myosin VI-NI, wild type, Q9UM54-1 R1255A (protein)
chain: B1 chain with A1253W, R1255A
On to B2, for which the other: pellet:supernatant (P:S) ratio in experiment [8] was 1.2.

B3: GFP-tagged full-length myosin VI-NI, wild type, Q9UM54-1 I1252A (protein)
chain: B1 chain with I1252A, A1253W
Consider B3, for which the other: pellet:supernatant (P:S) ratio in experiment [8] was found to be 1.

B4: GFP-tagged full-length myosin VI-NI, wild type, Q9UM54-1 E1251A (protein)
chain: B1 chain with E1251A, A1253W
For the molecule B4, the other: pellet:supernatant (P:S) ratio in experiment [8] amounted to 1.2.

B5: GFP-tagged full-length myosin VI-NI, wild type, Q9UM54-1 E1254A (protein)
chain: B1 chain with A1253W, E1254A
In the case of B5, in experiment [8], the other: pellet:supernatant (P:S) ratio stood at 0.97.
